Results from the supplement of paper PMC9170038.

What was measured:
[1] = system: K4 kissing-loop RNA reporter; assay: apparent KD of K4 kissing-loop reporter; higher = weaker reporter binding; conditions: Eterna round: R107;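 further: bound reporter read as fluorescence of individual clusters on recovered sequencing chips by microscopy, with normalized cluster intensities fitted with a binding model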
Description: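 RNA-MaP round R107: designed RNA switches with theophylline, tryptophan, arginine or FMN aptamers are transcribed on-chip within common flanks. They are titrated with a labelled K4 kissing-loop RNA reporter in RNA-MaP buffer (100 mM Tris pH 7.5, 80 mM KCl, 4 mM MgCl2), without ligand or with the indicated ligand. Median apparent KD per design.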

[2] = system: MS2 coat protein; assay: apparent KD of MS2 coat protein; designed switch direction (-1 OFF switch, 1 ON switch): -1; higher = weaker reporter binding
How it was run: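 The reported apparent KD is a per-design median over clusters, from curve fits of normalised cluster fluorescence. Protein titrations used SNAP-549-labelled MS2 coat protein, doubled from 0.7 or 1.5 nM to 3 µM, in Tris-HCl pH 7.5 buffer with KCl, MgCl2, BSA, DTT, tRNA and Tween-20, with no input, 200 uM small-molecule ligand, or an oligonucleotide input. The RNA switches were transcribed on Illumina chips by stalled E. coli RNA polymerase.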

[3] = input ligand: theophylline 20 uM
[4] = input ligand: tryptophan 2.4 mM
[5] = Eterna round: R95, input ligand: microRNA oligo, concentration not stated
[6] = input ligand: microRNA oligo, concentration not stated

Row | Sequence | apparent KD of K4 kissing-loop reporter ([1]; input ligand: FMN 200 uM) | apparent KD of K4 kissing-loop reporter ([1]; input ligand: arginine 13.2 mM) | apparent KD of K4 kissing-loop reporter ([1]; input ligand: none) | apparent KD of K4 kissing-loop reporter [1, 3] | apparent KD of K4 kissing-loop reporter [1, 4] | apparent KD of MS2 coat protein ([2]; input ligand: FMN 200 uM) | apparent KD of MS2 coat protein ([2]; input ligand: none) | further results
1 | ACACUAUCGUCAUAGACGGUAGUGAAAUGUGAGGAUAUGAGUGAUGUUAGAAGGCACAAAGACUGUAUCGAAUAGAUACAGUCAA [FmnA 6 #K4BetweenAptamer #OpenEnded] | 558 nM | 96.5 nM | 139 nM | 127 nM | 120 nM |  |  | 
2 | AAAGGCAUAGCCCGAGUGAUGUUCGACGAUACCAGCCUCGAUAGAGGCCCUUGGCAGCGUAAAUGAUCAUGAAGCCAAGGAAUAA [whbob_Ex_Theo_A_th68] | 340 nM | 303 nM | 391 nM | 816 nM | 422 nM |  |  | 
3 | GAAAGAAAGUAUGAUACCAGACACCCGAGUGAUGUUCGGAGCAGAGUGAUGUUCUUUUAAGUCCCUUGGCAGCAUAAAAGAAAAG [whbob_SS_Theo_B_sa83] | 192 nM | 219 nM | 238 nM | 294 nM | 166 nM |  |  | 
4 | AUUUAGACGAGUGAUGUUCGUGUUUUUUCAGAGGAUAUGCGUAAUUGCAGAAGGCUGUAUUUAUAUAUGUUUUGUUUUUUUAAAA [JR_ExcFMNA_Sub008] | 80.4 nM | 92.1 nM | 75.4 nM | 93.6 nM | 69.3 nM |  |  | 
5 | CUCGUGGGUUUGAGAGGGCUUGUGGGAAGUGAGGAUAUUUAGGGAGAAAGAAGGCACUAUAAAAUAUAGUGAUGUUAUAUAAGGG [SSFMNA.M] | 494 nM | 138 nM | 188 nM | 751 nM | 347 nM |  |  | 
6 | GGUUUAUAGGAGGAUACCAGUACGGAUAAAGUACGUUAAUAGUAGAGUGAUGUUCUAAAGUACCCUUGGCAGCUUAGAGUGAGUG [ExTheophylB.M] | 98.6 nM | 164 nM | 136 nM | 182 nM | 94.3 nM |  |  | 
7 | AUUAUAUAGGCGGCCGCCACUAGUGAUGUUAGUGAUGUCAUAAUAUAAUGAUAAAUUAUAUUGCGUAGGACCGGGCCUAAAUAUU [#15 K4 Tryptophan B Exclusion] | 108 nM | 62.3 nM | 86.3 nM | 100 nM | 111 nM |  |  | 
8 | AGACUACCACACUGUCAAUAGACAGUGAGCUAGGAUAUGCUGAUAAGCAGAAGGAGUGAUGUUCCGAGGUAGUCAAUAAAAUAAU [FmnAX 13 G29+G66] | 395 nM | 273 nM | 261 nM | 357 nM | 257 nM |  |  | 
9 | UAUAGAAACGUCCUAUCAAUAAAAUGGGAAGGAGCGAGGAAGAACUCAGGUAGGUCGCCCAAUAACCUUAGUGAUGUUAAGGAAA [Version 1] | 126 nM | 112 nM | 137 nM | 156 nM | 117 nM |  |  | 
10 | GCCAGCAGUACUGAUACCAGACUGCAUGUAGUGAUGUUGCAUAAGGGCAUAGAUGUCUCAGUCCCUUGGCAGCGGUACUGUUGCA [#10 K4 Theophylline B Same State] | 335 nM | 252 nM | 330 nM | 199 nM | 241 nM |  |  | 
11 | GUAUCGCUAGGAGGAUAUUUCAAUUCGUCAAUAAAUGGUGAUACGGAGUGAUGUUCCGAUUUACGGAAAGAAGGCCUAGUGAUAC [FMN B 7] | 173 nM | 265 nM | 298 nM | 287 nM | 285 nM |  |  | 
12 | AGUGUUUGGUUAGAUACCAGCCGUCUGUGGAUAAUCCUCAGACCGCCAGUGAUGUUGGCAGGCCCUUGGCAGCUAACAGGACAGA [Ersoed] | 198 nM | 213 nM | 275 nM | 233 nM | 224 nM |  |  | 
13 | ACGUCCUUGGUAAGGAUAUCGAUGGAGGCGAUCCACGAGAAGGUACAUGAGGAUCACCCAUGUAUACGAAUACG [Eternabot (L1) Solution 94] (Eterna round: R97, puzzle: Brourd's mod of Exclusion 4) |  |  |  |  |  | 18.4 nM | 17.8 nM | 
14 | UAUUAGCAAGCAAGAUCCUACAUGAGGAUCACCCAUGUGCUCGUCUUAAACGCAGAAUUACUGCGAGCUCGUCUUAU [Winner reversed engineered 25] (Eterna round: R97, puzzle: Sensor, turn-off variant 1) |  |  |  |  |  | 579 nM | 849 nM | 
15 | CUGUAACAUGAGGAUCACCCAUGUCAGGAUAUCUAUCAUAGCAUCGAAAGAUGCGGGUAGAGAAGGGACUAUCC [ChP Ext 10-04-2015 #8] (puzzle: Exclusion 1) |  |  |  |  |  |  |  | apparent KD of MS2 coat protein [2, 5]: 14.5 nM
16 | UUGUUAUGUGUAGGAUAUGCGUGUUAUUAUUAUGCAGAAGGACAUGAGGAUCACCCAUGUGUAUUGUUAUUAUAUAUUAUAUAU [Title] (Eterna round: R96, puzzle: Exclusion NG 1) |  |  |  |  |  | 21 nM | 20.8 nM | apparent KD of MS2 coat protein [2, 6]: 13.2 nM
17 | ACAUGAGGAUCACCCAUGUCAGGUGGGUCCUCUCCGGCUGUUGAGGAUAUAGUCCGGUAUCCGCGCUAGAAGGUGAGGGCUGGC [Aenatbe mod 16] (Eterna round: R96, puzzle: Exclusion NG 3) |  |  |  |  |  | 42.8 nM | 38.4 nM | apparent KD of MS2 coat protein [2, 6]: 23.8 nM
18 | UUAAUACAUGAGGAUCACCCAUGUCAGGAUAUUACGAUUACUCCGUGCCCAUUGAGAGUGAGAAGGGAUAUGGA [Eternabot (L2) Solution 58] (Eterna round: R97, puzzle: Exclusion 1) |  |  |  |  |  | 19.7 nM | 18.1 nM | 

Row | Sequence | apparent KD of K4 kissing-loop reporter ([1]; input ligand: FMN 200 uM) | apparent KD of K4 kissing-loop reporter ([1]; input ligand: arginine 13.2 mM) | apparent KD of K4 kissing-loop reporter ([1]; input ligand: none) | apparent KD of K4 kissing-loop reporter [1, 3] | apparent KD of K4 kissing-loop reporter [1, 4] | apparent KD of MS2 coat protein ([2]; input ligand: FMN 200 uM) | apparent KD of MS2 coat protein ([2]; input ligand: none) | further results
19 | AACUGACAUGAGGAUCACCCAUGUCAGGAUAUGCUUCAUAAAAACAAACAAAAAUGAUGCAGAAGGGACAUGGA [Design 30 :P Sub-opt 6] (Eterna round: R96, puzzle: Exclusion 1) |  |  |  |  |  |  |  | apparent KD of MS2 coat protein [2, 6]: 14.3 nM
20 | CUUUUUGUUGAGGAUAUGCACCAGCUCACUGACGCAGAAGGCGACACAUGAGGAUCACCCAUGUCAGUUCGCGU [salish99_ex6_r004_431] (Eterna round: R97, puzzle: Exclusion 6) |  |  |  |  |  | 21.5 nM | 16.8 nM | 
21 | AUUAUAUAGAAAGGAUAUUGAUUAUUAUUUUAACAUGAGGAUCACCCAUGUAGCCUUAUGUAUAACAAGAAGGUUCAUUUAUUA [Title] (Eterna round: R96, puzzle: Exclusion NG 2) |  |  |  |  |  |  |  | apparent KD of MS2 coat protein [2, 6]: 58.4 nM
22 | AGUUAUUCAGGAUAUGGUGUGUUAUACAUGAGGAUCACCCAUGUGGAUCCUGGUUAGGCCUCAGAAGGGAAUGUUA [salish99_ex5_r4_126] (Eterna round: R97, puzzle: Exclusion 5) |  |  |  |  |  | 412 nM | 435 nM | 
23 | AGACGAUCGUAGGAUAUCGGAAGGUCACUGGACUGAGAAGGACGAACAUGAGGAUCACCCAUGUGAUCUCUGGU [Eternabot (L2) Solution 43] (Eterna round: R97, puzzle: Exclusion 6) |  |  |  |  |  | 779 nM | 734 nM | 
24 | UAUAUAUAGUAAGGAUAUGUAUUUAUUUAAUAAACAGAAGGUACUGACAUGAGGAUCACCCAUGUUUUAGUGUGGGCAUGUAGA [JMF's solution 19] (Eterna round: R96, puzzle: Exclusion NG 1) |  |  |  |  |  |  |  | apparent KD of MS2 coat protein [2, 6]: 66.3 nM
25 | CGAUAAAGCUGAGGAUAUGAGGAGAGAGAGAGAUCAGAAGGCAGACAUGAGGAUCACCCAUGUGAGUUCUCGAAAUUAAAUAUU [Prohibition 48 - Jieux - Exclusion NG 1] (Eterna round: R96, puzzle: Exclusion NG 1) |  |  |  |  |  | 225 nM | 57.5 nM | apparent KD of MS2 coat protein [2, 6]: 47 nM
26 | GUCAGACGAGGAUAUGAUCAAUAAUACAUGAGGAUCACCCAUGUAAUACUGAUCCAUGGAUCAGAAGGCGUCUGAC [E5/5-A4] (Eterna round: R97, puzzle: Exclusion 5) |  |  |  |  |  | 23.4 nM | 15.4 nM | 
27 | UGAUCACAUGAGGAUCACCCAUGUCAGGAUAUCUACAUUGAAGCCUCGGCUUCAAUGUAGAGAAGGGAUAUAAU [E1/5-B2] (Eterna round: R97, puzzle: Exclusion 1) |  |  |  |  |  | 189 nM | 86.8 nM | 
28 | GGUCGAAGUGUGAGGAUAUGCUGGUCCUUGGAUCAGCAGAAGGCACAUGAGGAUCACCCAUGUGGUAAACGACC [Mat - Exclusion 4 - Eli Mod - D34] (Eterna round: R97, puzzle: Brourd's mod of Exclusion 4) |  |  |  |  |  | 982 nM | 171 nM | 
29 | CAGUACUGAGGAUAUACAUGAGGAUCACCCAUGUGUUCCAGCUAGGAUACUAGCAAAAGUAGAAGGCAGUACUG [salish99_ex3_r3_095x] (puzzle: Exclusion 3) |  |  |  |  |  |  |  | apparent KD of MS2 coat protein ([2]; Eterna round: R95, input ligand: FMN 200 uM): 484 nM; apparent KD of MS2 coat protein [2, 5]: 30.4 nM; apparent KD of MS2 coat protein ([2]; Eterna round: R95, input ligand: none): 24 nM
30 | UACUUCUGAGGAUAUACAUAGAUUUACAUGAGGAUCACCCAUGUUCCUCUAUGUAUAAAUGUAGAAGGCAGAAGAU [Mat - Exclusion 5 - JL Mod - D61] (Eterna round: R97, puzzle: Exclusion 5) |  |  |  |  |  | 87.8 nM | 16.7 nM | 
31 | AAGAUGCGGAUAGGAUAUGGAAAGAAGGAAAGACCAGAAGGAUUGGUCAUAUAACAUGAGGAUCACCCAUGUAUAUGUUGUGAA [AK ExNG1-3.1] (Eterna round: R96, puzzle: Exclusion NG 1) |  |  |  |  |  |  |  | apparent KD of MS2 coat protein [2, 6]: 13 nM
32 | ACAUGAGGAUCACCCAUGUCAGGUUGGUCCUCUCCGGCUGUUGAGGAUAUAGUCCGGUAUCCGCGCUAGAAGGUGAGGGCUGGC [Aenatbe mod 15] (Eterna round: R96, puzzle: Exclusion NG 3) |  |  |  |  |  | 21.4 nM | 21.3 nM | apparent KD of MS2 coat protein [2, 6]: 17.2 nM
33 | UCGCUGCGAGGAUAUACAUGAGGAUCACCCAUGUGCGGGUCCGGGUCUUCGUCCAUUAGUAGAAGGCGCAGUGA [JL Laongeedie mod 4] (puzzle: Exclusion 3) |  |  |  |  |  |  |  | apparent KD of MS2 coat protein [2, 5]: 99.9 nM
34 | CUGGACCCGGCAGGAUAUAUUGUGGGCGGGCGUGGAACGACAUGAGGAUCACCCAUGUGAUUGAGGUAGAAGGGCCGAGAGGUC [Excl-NG2-LRO20] (Eterna round: R96, puzzle: Exclusion NG 2) |  |  |  |  |  | 38.5 nM | 47.7 nM | apparent KD of MS2 coat protein [2, 6]: 30.6 nM
35 | AAUCCACAUGAGGAUCACCCAUGUUAGGAUAUCGCGGAGAUCGACUGCGGAAGUUCUGCGAGAAGGAGCGUGAU [Eternabot (L2) Solution 18] (Eterna round: R97, puzzle: Exclusion 1) |  |  |  |  |  | 51.6 nM | 44 nM | 
